# Experimental data as given in doi:10.1101/2022.04.07.487047 (bioRxiv, 2022).
# Substitutions are numbered along the chain they refer to. Names and notes keep the numbering of the source.
# T1: CydD, subunit of the heterodimeric ABC transporter CydDC (Escherichia coli, UniProt P29018 1-588)
# T1 sequence: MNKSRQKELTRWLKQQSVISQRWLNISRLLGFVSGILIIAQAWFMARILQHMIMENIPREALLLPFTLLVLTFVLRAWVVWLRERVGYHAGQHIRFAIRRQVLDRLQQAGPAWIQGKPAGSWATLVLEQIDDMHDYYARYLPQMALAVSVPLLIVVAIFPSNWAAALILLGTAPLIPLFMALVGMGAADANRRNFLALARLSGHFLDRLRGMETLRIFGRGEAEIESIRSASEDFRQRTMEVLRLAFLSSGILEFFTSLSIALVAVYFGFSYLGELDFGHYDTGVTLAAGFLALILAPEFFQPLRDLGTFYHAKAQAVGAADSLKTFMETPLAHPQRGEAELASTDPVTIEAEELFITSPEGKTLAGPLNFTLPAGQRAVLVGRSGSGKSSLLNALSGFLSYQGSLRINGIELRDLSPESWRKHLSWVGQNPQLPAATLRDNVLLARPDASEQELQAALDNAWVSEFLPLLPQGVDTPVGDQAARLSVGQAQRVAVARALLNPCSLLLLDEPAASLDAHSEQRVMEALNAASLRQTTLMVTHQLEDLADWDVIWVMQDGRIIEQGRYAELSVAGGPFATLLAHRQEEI
# B1: CydC, subunit of the heterodimeric ABC transporter CydDC (wild type) (natural protein, Escherichia coli)
# chain: MRALLPYLALYKRHKWMLSLGIVLAIVTLLASIGLLTLSGWFLSASAVAGVAGLYSFNYMLPAAGVRGAAITRTAGRYFERLVSHDATFRVLQHLRIYTFSKLLPLSPAGLARYRQGELLNRVVADVDTLDHLYLRVISPLVGAFVVIMVVTIGLSFLDFTLAFTLGGIMLLTLFLMPPLFYRAGKSTGQNLTHLRGQYRQQLTAWLQGQAELTIFGASDRYRTQLENTEIQWLEAQRRQSELTALSQAIMLLIGALAVILMLWMASGGVGGNAQPGALIALFVFCALAAFEALAPVTGAFQHLGQVIASAVRISDLTDQKPEVTFPDTQTRVADRVSLTLRDVQFTYPEQSQQALKGISLQVNAGEHIAILGRTGCGKSTLLQQLTRAWDPQQGEILLNDSPIASLNEAALRQTISVVPQRVHLFSATLRDNLLLASPGSSDEALSEILRRVGLEKLLEDAGLNSWLGEGGRQLSGGELRRLAIARALLHDAPLVLLDEPTEGLDATTESQILELLAEMMREKTVLMVTHRLRGLSRFQQIIVMDNGQIIEQGTHAELLARQGRYYQFKQGL
# B2: CydC H85A (histidine to alanine exchange at position 85), subunit of CydDC^H85A (natural protein, Escherichia coli)
# chain: B1 chain with H85A
# B3: CydC E500Q (Walker B glutamate to glutamine mutant), subunit of CydDC^E500Q (natural protein, Escherichia coli)
# chain: B1 chain with E500Q
# Target: T1, CydD, subunit of the heterodimeric ABC …
# Test: cryo-EM structure
row,Binder,binding result
1,B1,binds
2,B2,binds
3,B3,binds
